Experiments:
[1] = biological target: hIGF-1R-Fc mutant SD008 (S258F) (human) (UniProt P08069); assay: SPR, Fab on receptor-Fc held on M13-C06 chip
[2] = biological target: hIGF-1R-Fc mutant SD019 (A739W_I741F) (human) (UniProt P08069); assay: SPR, Fab on receptor-Fc held on M13-C06 chip
Sequence of hIGF-1R-Fc mutant SD019 (A739W_I741F) (human) (P08069 31-933, stated change not applied): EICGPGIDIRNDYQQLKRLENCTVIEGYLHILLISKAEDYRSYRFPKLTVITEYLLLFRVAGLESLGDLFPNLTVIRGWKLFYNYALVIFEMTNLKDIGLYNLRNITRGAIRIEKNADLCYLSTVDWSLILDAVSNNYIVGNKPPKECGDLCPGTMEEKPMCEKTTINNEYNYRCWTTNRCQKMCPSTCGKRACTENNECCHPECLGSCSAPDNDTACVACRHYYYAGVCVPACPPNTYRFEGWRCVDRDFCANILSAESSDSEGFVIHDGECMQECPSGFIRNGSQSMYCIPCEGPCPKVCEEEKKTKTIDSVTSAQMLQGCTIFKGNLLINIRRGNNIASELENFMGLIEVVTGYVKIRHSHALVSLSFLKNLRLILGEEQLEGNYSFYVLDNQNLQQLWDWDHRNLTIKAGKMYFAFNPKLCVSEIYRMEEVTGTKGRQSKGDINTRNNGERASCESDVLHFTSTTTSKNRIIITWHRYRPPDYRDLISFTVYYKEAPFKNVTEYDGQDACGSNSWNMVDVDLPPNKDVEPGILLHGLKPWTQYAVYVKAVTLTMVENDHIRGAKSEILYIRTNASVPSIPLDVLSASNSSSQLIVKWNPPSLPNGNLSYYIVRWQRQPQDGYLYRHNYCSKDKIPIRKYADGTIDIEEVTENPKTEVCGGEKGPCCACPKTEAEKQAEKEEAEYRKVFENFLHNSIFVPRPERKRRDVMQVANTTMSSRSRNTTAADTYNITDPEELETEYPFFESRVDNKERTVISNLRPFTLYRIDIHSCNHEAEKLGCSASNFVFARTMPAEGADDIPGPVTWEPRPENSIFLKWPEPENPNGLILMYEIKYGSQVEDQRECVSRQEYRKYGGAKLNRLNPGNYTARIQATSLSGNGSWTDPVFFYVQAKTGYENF

Sequence of hIGF-1R-Fc mutant SD008 (S258F) (human) (P08069 31-933, stated change not applied): as above

B1: M13-C06 Fab (Fab, V domains shown)
VH: EVQLLESGGGLVQPGGSLRLSCAASGFTFSIYRMQWVRQAPGKGLEWVSGISPSGGTTWYADSVKGRFTISRDNSKNTLYLQMNSLRAEDTAVYYCARWSGGSGYAFDIWGQGTMVTVSS
VL: DIQMTQSPLSLSASVGDRVTITCQASRDIRNYLNWYQQKPGKAPKLLIYDASSLQTGVPSRFGGSGSGTDFSFTIGSLQPEDIATYYCQQFDSLPHTFGQGTKLEIK
[1]
  Biacore Relative RUmax: 1.5
[2]
  Biacore Relative RUmax: 1.9
